Reference: the Human Domainome abundance scans (Beltran et al. 2025)

B1: Receptor-interacting serine/threonine-protein kinase 2, residues 438 to 518; numbered along this chain, O43353 (parent)
chain: QWIQSKREDIVNQMTEACLNQSLDALLSRDLIMKEDYELVSTKPTRTSKVRQLLDTTDIQGEEFAKVIVQKLKDNKQMGLQ
B2: Advillin, residues 785 to 819; numbered along this chain, O75366 (parent)
chain: LSEQDFVSVFGITRGQFAALPGWKQLQMKKEKGLF

Variants of: B1
Assay: abundance fitness (aPCA) (normalised: wild type 0, dead -1); higher = more abundant; growth selection in yeast, the domain comes from the species named
Conditions: Homo sapiens

Abundance fitness of substitutions, site by site:
G79: S -0.021, V -0.167, R -0.282
K66: A -0.172, Y -0.874, D -0.401, R -0.166, F -1.05, H -0.459, L -0.555, P -0.471, N -0.58, Q -0.135, V -0.702, E 0.096, T -0.187, M -0.192, I -0.757, G -0.182
K76: F -0.207, S 0.032, R -0.192, W -0.36, E -0.19, T -0.093, N -0.203, Q -0.032, V -0.301, H -0.069, D -0.192, L -0.125, P -0.314, A 0.008, C 0.003, Y -0.272, G 0.066
V67: F -0.945, I 0.164, C -0.33, R -0.854, Q -0.568, G -0.639, D -0.453, P -0.562, T -0.305, M -0.674, A -0.674, N -0.651, L -0.51, E -0.294, W -0.95, H -0.396
Q81: H -0.419
K73: D -0.269, T -0.01, Q -0.003, P -0.633, F -0.609, L -0.064, H -0.319, R 0.011, S 0.001, A -0.119, N -0.191, V -0.191, Y -0.039, M -0.107, G -0.132, E 0.072
V69: L -0.286, W -0.4, K -0.35, I -0.051, Q -0.306, D -0.27, E -0.178, S -0.57, C -0.159, G -0.553, Y -0.23, H -0.508, N -0.94, F -0.057, M 0.003, A -0.384
Q70: W -0.645, A -0.072, D -0.206, Y -0.776, E 0.08, M -0.436, L -0.687, V -0.714, P -0.567, N -0.81, G -0.144, H -0.351, I -0.614, S -0.174
Q77: H -0.137
I68: P -0.462, W -0.958, E -0.152, F -0.924, C -0.866, L -0.413, H -0.508, K -0.909, M -0.201, T -0.345, R -0.695, Y -0.568, S -0.491, N -0.459, Q -0.554, V -0.147, A -0.367, G -0.497
K71: Y -0.204, E -0.21, A 0.022, D -0.381, H 0.078, Q -0.086, R -0.612, I -0.122, L -0.289, C -0.02, M -0.113, P -0.555, F -0.249, S 0.028, N -0.157, V 0.151, G -0.281, W -1.09
D74: T -0.285, M -0.399, E -0.085, Q -0.248, G -0.336, K -0.644, H 0.046, A -0.076, S -0.323, P -0.512, R -0.49, Y -0.173, C -0.246, W -0.488, N -0.345, F -0.486, I -0.261
N75: L -0.135, P -0.446, Y -0.285, V -0.383, W -0.244, C -0.2, G -0.241, A -0.281, F -0.431, D -0.053, K -0.535, R -0.62, H -0.024, Q -0.046, T -0.245, M -0.162
L72: M 0.121, P -0.54, Q -0.451, F -0.072, T -0.448, N -0.043, C -0.713, A -0.865, G -0.528, S -0.587, Y -0.695, V -0.394, E -0.283, H -0.741, R -0.633
M78: I -0.372
A65: Y -0.691

Variants of: B2
Assay: as above
Conditions: Homo sapiens

Abundance fitness of substitutions, site by site:
I12: D -0.442, Q -0.897
V9: W -0.684, P -0.632, C -0.527, K -0.04, H 0.018
L26: A 0.034, R -0.033, F -0.185, I -0.181
K24: S -0.304, V -0.279, G -0.488, Y -0.805, C -0.342, I -0.148, Q -0.072
F35: K -1, S 0.355, R 0.126
Q25: M -0.507, C -0.846
T13: G -0.382, E -0.101, K -0.314, Q -0.871, D -0.265, N -0.26
W23: S -0.092, Q -0.213, P -0.188, H -0.101, K -0.042
A18: L -0.062, M -0.3
A19: G -0.114, Q -0.367, H -0.119
V7: D -0.085, L 0.04, A -0.149, G -0.306
F17: W -0.441, H -0.965, L -0.476
L20: N -0.248, R -0.563, D -0.113, K -0.639, Q -0.368, S -0.328
K30: M 0.051, R 0.033, I -0.266, T -0.215, C -0.321, H -0.121, A 0.078, N 0.04, Q 0.026, S -0.114
R14: C -0.095, I -0.252, F -0.117, N -0.611
Q4: C -0.846, W -0.267
G11: L -1.05
Q27: H 0.108, M -0.293
G33: K -0.325, T -0.308, E -0.032
F6: K -0.514, Y -0.224, C 0.06, G -1.08
K32: Y -0.298, T -0.179
L34: P 0.033, N 0.027, G 0.147, M 0.029
D5: P -0.651, T -0.255
S2: K -0.127, T -0.289, G -0.078, L -0.123, W -0.305, Y -0.505
G22: K 0.064, C -0.44, Q 0.01, E 0.069, R -0.099, H 0.082, D -0.104
F10: E -0.285, Y -0.016, P -0.726, N -0.2, V -0.332, M -0.305
G15: W -0.395, K 0.15, R -0.089, S 0.203, V -0.077, Q 0.11, H 0.008
S8: P -0.506, L -0.238, V -0.117, D -0.081, N -0.329, M 0.003
M28: P -1.19, K -0.708, I -0.619, A -0.905, G -1.13, S -1.14
P21: N -0.51, L -0.509, D -0.54, A -0.414
K29: Y -0.221, N -0.09, D -0.356, A -0.183
L1: G -0.051, R -0.156, W -0.079, E 0.694
E31: P -0.645, M -0.453, D 0.02, I -0.421
E3: K -0.409, R -0.476
Q16: F -0.302, H -0.183, R -0.281, T -0.192, C -0.43, S -0.211
